Experimental data taken from patent US20110281938, “APTAMERS TO TISSUE FACTOR PATHWAY INHIBITOR AND THEIR USE AS BLEEDING DISORDER THERAPEUTICS” (Baxter Healthcare S.A., published 2011).

Legend:
Conditions in all cases: tags: American Diagnostica 4500PC/4900PC, E. coli expressed
[1] = target: T1, TFPI (tissue factor pathway inhibitor, full-length) (Homo sapiens, UniProt P10646 SEQ:1-276); test: competition; fails binding-competition criterion
Description: (§1) Each molecule was evaluated for binding to tissue factor pathway inhibitor (TFPI) in a binding-competition assay. For these experiments, 10 nM human TFPI (American Diagnostica, Stamford, Conn., catalog #4500PC) was incubated with trace amounts of radiolabeled ARC17480 and 5000 nM, 1666.67 nM, 555.56 nM, 185.19 nM, 61.73 nM, 20.58 nM, 6.86 nM, 2.29 nM, 0.76 nM or 0.25 nM of unlabeled competitor aptamer. ARC17480 was included as a competitor in every experiment as a control. For each molecule, the percentage of radiolabeled ARC17480 bound at each competitor aptamer concentration was used for analysis. The percentage of radiolabeled ARC17480 bound was plotted as a function of aptamer concentration and fit to the equation y=(max/(1+x/IC₅₀))+int, where y=the percentage of radiolabeled ARC17480 bound, x=the concentration of aptamer, max=the maximum radiolabeled ARC17480 bound, and int=the y-intercept, to generate an IC₅₀ value for binding-competition. The IC₅₀ of each aptamer was compared to the IC₅₀ of ARC17480 that was evaluated in the same experiment. A substitution was considered tolerated in the binding-competition assay if the IC₅₀ of that molecule was not more than 5-fold greater than that of ARC17480 evaluated in the same experiment. Tolerated substitutions are indicated in Table 38 as meeting the assay criteria (“yes”) or not meeting the assay criteria (“no”).

[2] = target: T1, TFPI (tissue factor pathway inhibitor, …); test: competition; meets binding-competition criterion
Description: as §1

[3] = target: T1, TFPI (tissue factor pathway inhibitor, …); test: competition; fails binding-competition criterion; remark: listed apart in the source
Description: (§2) The substituted ARC17480 molecules were assayed for binding and function. The assays used for this evaluation were the calibrated automated thrombogram (CAT) assay, a dot-blot binding-competition assay and a FXa activity assay. The results of these assays are summarized in Table 40 and depicted in FIG. 147. A mutation was considered tolerated for activity if it met the criteria of at least two of the three assays that were carried out. Mutations that are tolerated (“yes”) and not tolerated (“no”) are identified in Table 40. The experimental details and the criteria used for each assay are described in the following paragraphs. The molecules described in this example were first tested in the CAT assay and the dot-blot binding-competition assay. In most cases, molecules were only tested in the FXa assay if there was a discrepancy between the results in the CAT assay and the dot-blot binding-competition assay.
(§3) Each molecule was evaluated for binding to tissue factor pathway inhibitor (TFPI) in a binding-competition assay. For these experiments, 10 nM human TFPI (American Diagnostica, Stamford, Conn., catalog #4900PC) was incubated with trace amounts of radiolabeled ARC17480 and 5000 nM, 1666.67 nM, 555.56 nM, 185.19 nM, 61.73 nM, 20.58 nM, 6.86 nM, 2.29 nM, 0.76 nM or 0.25 nM of unlabeled competitor aptamer. ARC17480 was included as a competitor in every experiment as a control. For each molecule, the percentage of radiolabeled ARC17480 bound at each competitor aptamer concentration was used for analysis. The percentage of radiolabeled ARC17480 bound was plotted as a function of aptamer concentration and fit to the equation y=(max/(1+x/IC₅₀))+int, where y=the percentage of radiolabeled ARC17480 bound, x=the concentration of aptamer, max=the maximum radiolabeled ARC17480 bound, and int=the y-intercept, to generate an IC₅₀ value for binding-competition. The IC₅₀ of each aptamer was compared to the IC₅₀ of ARC17480 that was evaluated in the same experiment. A mutation was considered tolerated in the binding-competition assay if the IC₅₀ of that molecule was not more than 5-fold greater than that of ARC17480 evaluated in the same experiment. Tolerated mutations are indicated in Table 40 as meeting the assay criteria (“yes”) or not meeting the assay criteria (“no”).

[4] = target: T1, TFPI (tissue factor pathway inhibitor, …); test: competition; meets binding-competition criterion; remark: listed apart in the source
Description: as §2, §3

T1 sequence (P10646 29-304): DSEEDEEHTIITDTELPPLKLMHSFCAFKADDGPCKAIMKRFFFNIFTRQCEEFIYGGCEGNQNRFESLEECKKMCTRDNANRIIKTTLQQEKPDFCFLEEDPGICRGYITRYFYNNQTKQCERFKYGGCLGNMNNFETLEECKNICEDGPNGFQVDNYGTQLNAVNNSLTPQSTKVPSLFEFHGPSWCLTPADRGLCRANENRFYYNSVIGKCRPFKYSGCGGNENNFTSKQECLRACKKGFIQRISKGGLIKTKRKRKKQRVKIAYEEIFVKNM

GGAAUAUACUUGGCUCGUUAGGUCGUAUAUA (mixed, 2'-OMe A/G/U, 2'-deoxy C, 3' idT) [ARC33136] was tested, and the binding signal [1] was > 5 fold IC50 of ARC17480.

In the case of GGAAUAUACUUGGCUCGUUAGGUGGUAUAUA (mixed, 2'-OMe A/G/U, 2'-deoxy C, 3' idT) [ARC33137], the binding signal [1] is reported as > 5 fold IC50 of ARC17480.

GGAAUAUACUUGGCUCGUUAGGUGCGAUAUA (mixed, 2'-OMe A/G/U, 2'-deoxy C, 3' idT) [ARC33139] was tested, and the binding signal [1] was > 5 fold IC50 of ARC17480.

For GGAAUAUACUUGGCUCGUUAGGUGCUAUAUA (mixed, 2'-OMe A/G/U, 2'-deoxy C, 3' idT) [ARC33138], the binding signal [1] was > 5 fold IC50 of ARC17480.

For GGAAUAUACUUGGCUCGAGGUGCGUAUAUA (mixed, 2'-OMe A/G/U, 2'-deoxy C, 3' idT) [ARC33147], the binding signal [1] was > 5 fold IC50 of ARC17480.

AAUAUACUUGGCUCGUUAGGUGCGUAUAUA (mixed, 2'-OMe A/G/U, 2'-deoxy C, 3' idT) [ARC32302] was tested, and the binding signal [2] was ≤ 5 fold IC50 of ARC17480.

With AAUAUACUUGGCUCGUUAGGUGCGUAUA (mixed, 2'-OMe A/G/U, 2'-deoxy C, 3' idT) [ARC32306] the binding signal [2] was ≤ 5 fold IC50 of ARC17480.

For GGAAUAUACUUCUCGUUAGGUGCGUAUAUA (mixed, 2'-OMe A/G/U, 2'-deoxy C, 3' idT) [ARC33146], the binding signal [1] was > 5 fold IC50 of ARC17480.

In the case of GAAUAUACUUGGCUCGUUAGGUGCGUAUAU (mixed, 2'-OMe A/G/U, 2'-deoxy C, 3' idT) [ARC32305], the binding signal [2] is reported as ≤ 5 fold IC50 of ARC17480.

In the case of AUACUUGGCUCGUUAGGUGCGUAUA (mixed, 2'-OMe A/G/U, 2'-deoxy C, 3' idT) [ARC33895], the binding signal [2] is reported as ≤ 5 fold IC50 of ARC17480.

For GAAUAUACUUGGCUCGUUAGGUGCGUAUAUA (mixed, 2'-OMe A/G/U, 2'-deoxy C, 3' idT) [ARC32301], the binding signal [2] was ≤ 5 fold IC50 of ARC17480.

For GGAUAUACUUGGCUCGUUAGGUGCGUAUAUA (mixed, 2'-OMe A/G/U, 2'-deoxy C, 3' idT) [ARC33120], the binding signal [2] was ≤ 5 fold IC50 of ARC17480.

With GGAAAUACUUGGCUCGUUAGGUGCGUAUAUA (mixed, 2'-OMe A/G/U, 2'-deoxy C, 3' idT) [ARC33121] the binding signal [2] was ≤ 5 fold IC50 of ARC17480.

For GGAAUAUACUUGGCUTGUUAGGUGCGUAUAUA (mixed, 2'-OMe A/G/U, dT16, 2'-deoxy C, 3' idT) [ARC33164], the binding signal [3] was > 5 fold IC50 of ARC17480.

In the case of GGAAUAUACUUGGCCCGUUAGGUGCGUAUAUA (mixed, 2'-OMe A/G/U and mC15, other C 2'-deoxy, 3' idT) [ARC33163], the binding signal [3] is reported as > 5 fold IC50 of ARC17480.

With GGAAUAUACUUGGCUCGUUAGGUGTGUAUAUA (mixed, 2'-OMe A/G/U, dT25, 2'-deoxy C, 3' idT) [ARC33173] the binding signal [3] was > 5 fold IC50 of ARC17480.

For GGAAUAUACUUUGCUCGUUAGGUGCGUAUAUA (mixed, 2'-OMe A/G/U, 2'-deoxy C, 3' idT) [ARC33160], the binding signal [3] was > 5 fold IC50 of ARC17480.

In the case of GGAAUAUACUUGUCUCGUUAGGUGCGUAUAUA (mixed, 2'-OMe A/G/U, 2'-deoxy C, 3' idT) [ARC33161], the binding signal [3] is reported as > 5 fold IC50 of ARC17480.

For GGAAUAUACUCGGCUCGUUAGGUGCGUAUAUA (mixed, 2'-OMe A/G/U and mC11, other C 2'-deoxy, 3' idT) [ARC33159], the binding signal [3] was > 5 fold IC50 of ARC17480.

In the case of GGAAUAUACUUGGCUCGUUAGGUUCGUAUAUA (mixed, 2'-OMe A/G/U, 2'-deoxy C, 3' idT) [ARC33172], the binding signal [3] is reported as > 5 fold IC50 of ARC17480.

In the case of GGAAUAUACUUGGCUCGUUAGGUGCUUAUAUA (mixed, 2'-OMe A/G/U, 2'-deoxy C, 3' idT) [ARC33174], the binding signal [3] is reported as > 5 fold IC50 of ARC17480.

For GGAAUAUACUUGGCUCGUUAGGUGCGCAUAUA (mixed, 2'-OMe A/G/U and mC27, other C 2'-deoxy, 3' idT) [ARC33175], the binding signal [3] was > 5 fold IC50 of ARC17480.

With GGAAUAUACUUGGCUCUUUAGGUGCGUAUAUA (mixed, 2'-OMe A/G/U, 2'-deoxy C, 3' idT) [ARC33165] the binding signal [3] was > 5 fold IC50 of ARC17480.

GGAAUAGACUUGGCUCGUUAGGUGCGUAUAUA (mixed, 2'-OMe A/G/U, 2'-deoxy C, 3' idT) [ARC34869] was tested, and the binding signal [3] was > 5 fold IC50 of ARC17480.

GGAAUAUACUUGGCUCGUCAGGUGCGUAUAUA (mixed, 2'-OMe A/G/U and mC19, other C 2'-deoxy, 3' idT) [ARC33167] was tested, and the binding signal [4] was ≤ 5 fold IC50 of ARC17480.

In the case of GGAAUAUACUUGGCUCGUUAGGCGCGUAUAUA (mixed, 2'-OMe A/G/U and mC23, other C 2'-deoxy, 3' idT) [ARC33171], the binding signal [3] is reported as > 5 fold IC50 of ARC17480.

For GGAAUAUACUUGGCUCGUUAGUUGCGUAUAUA (mixed, 2'-OMe A/G/U, 2'-deoxy C, 3' idT) [ARC33170], the binding signal [3] was > 5 fold IC50 of ARC17480.

For GGAAUAUACUUGGCUCGUUUGGUGCGUAUAUA (mixed, 2'-OMe A/G/U, 2'-deoxy C, 3' idT) [ARC33168], the binding signal [3] was > 5 fold IC50 of ARC17480.

In the case of GGAAUAUACUUGGCUCGUUAGGUGCGUUUAUA (mixed, 2'-OMe A/G/U, 2'-deoxy C, 3' idT) [ARC33176], the binding signal [3] is reported as > 5 fold IC50 of ARC17480.

For GGAAUAUATUUGGCUCGUUAGGUGCGUAUAUA (mixed, 2'-OMe A/G/U, dT9, 2'-deoxy C, 3' idT) [ARC33157], the binding signal [3] was > 5 fold IC50 of ARC17480.

In the case of GGAAUAAACUUGGCUCGUUAGGUGCGUAUAUA (mixed, 2'-OMe A/G/U, 2'-deoxy C, 3' idT) [ARC34868], the binding signal [3] is reported as > 5 fold IC50 of ARC17480.

For AUAUACUUGGCUCGUUAGGUGCGUAUA (mixed, 2'-OMe A/G/U, 2'-deoxy C, 3' idT) [ARC33890], the binding signal [2] was ≤ 5 fold IC50 of ARC17480.

In the case of UUACUUGGCUCGUUAGGUGCGUAUA (mixed, 2'-OMe A/G/U, 2'-deoxy C, 3' idT) [ARC33900], the binding signal [2] is reported as ≤ 5 fold IC50 of ARC17480.

GGUAUACUUGGCUCGUUAGGUGCGUAUAUA (mixed, 2'-OMe A/G/U, 2'-deoxy C, 3' idT) [ARC33144] was tested, and the binding signal [2] was ≤ 5 fold IC50 of ARC17480.

GGAAUACUUGGCUCGUUAGGUGCGUAUAUA (mixed, 2'-OMe A/G/U, 2'-deoxy C, 3' idT) [ARC33907] was tested, and the binding signal [2] was ≤ 5 fold IC50 of ARC17480.

With AUAUACUUGGCUCGUUAGGUGCGUAU (mixed, 2'-OMe A/G/U, 2'-deoxy C, 3' idT) [ARC32307] the binding signal [2] was ≤ 5 fold IC50 of ARC17480.

GGAAUAUACUUGGCUCGUUAUGCGUAUAUA (mixed, 2'-OMe A/G/U, 2'-deoxy C, 3' idT) [ARC33148] was tested, and the binding signal [1] was > 5 fold IC50 of ARC17480.

For GGAAUAUACUUGGCUCGUUAGGUGCGUAUAU (mixed, 2'-OMe A/G/U, 2'-deoxy C, 3' idT) [ARC18555], the binding signal [2] was ≤ 5 fold IC50 of ARC17480.

In the case of AUAUACUUGGCUCGUUAGGUGCGUAUAUA (mixed, 2'-OMe A/G/U, 2'-deoxy C, 3' idT) [ARC32303], the binding signal [2] is reported as ≤ 5 fold IC50 of ARC17480.

GGAAUAUACGGCUCGUUAGGUGCGUAUAUA (mixed, 2'-OMe A/G/U, 2'-deoxy C, 3' idT) [ARC33145] was tested, and the binding signal [1] was > 5 fold IC50 of ARC17480.

With UAUACUUGGCUCGUUAGGUGCGUAUA (mixed, 2'-OMe A/G/U, 2'-deoxy C, 3' idT) [ARC33891] the binding signal [2] was ≤ 5 fold IC50 of ARC17480.

For GGAAUAUACUUGGCUCGUUAGGUGCGUUAUA (mixed, 2'-OMe A/G/U, 2'-deoxy C, 3' idT) [ARC33140], the binding signal [1] was > 5 fold IC50 of ARC17480.

With GGAAUAUACUUGGCUCGUUAGGUGCGUAUUA (mixed, 2'-OMe A/G/U, 2'-deoxy C, 3' idT) [ARC33142] the binding signal [2] was ≤ 5 fold IC50 of ARC17480.

For GGAAUAUACUUGGCUCGUUAGGUGCGUAUAA (mixed, 2'-OMe A/G/U, 2'-deoxy C, 3' idT) [ARC33143], the binding signal [2] was ≤ 5 fold IC50 of ARC17480.
